Target: human CD47/his fusion protein (extracellular domain of human CD47 fused to His-tag) (human)
Assay: SPR; monomeric hCD47

Kd: 19.9 nM
B1: mouse anti-human CD47 monoclonal antibody 5F9 (antibody, V domains shown)
VH: QVQLQQPGAELVKPGASVMMSCKASGYTFTNYNMHWVKQTPGQGLEWIGTIYPGNDDTSYNQKFKDKATLTADKSSSAAYMQLSSLTSEDSAVYYCARGGYRAMDYWGQGTSVTVSS
VL: DVLMTQTPLSLPVSLGDQASISCRSSQSIVYSNGNTYLGWYLQKPGQSPKLLIYKVSNRFSGVPDRFSGSGSGTDFTLKISRVEAEDLGVYHCFQGSHVPYTFGGGTKVEIK
modifications: biotin-labeled in the competition ELISA (site not stated)

From paper PMC4577081 (2015)
